Measurements reported in patent US20060089302A1, “Hsp70-derived peptides and uses thereof in the diagnosis and treatment of autoimmune diseases” (priority 2002, published 2006).
Several values for one entry are separate records, joined by “and”; a condition that tells them apart may be missing. Equal values may be shown once.

How the values were obtained:
[1] = system: serum IgG anti-hsp60, anti-hsp70, anti-hsp90, anti-tetanus toxoid; assay: Determination of auto-antibodies (antibody capture ELISA on antigen-coated plates); type: binding, human; conditions: for IgG antibodies to the antigen in serum, Mean ± SD: group mean
Experimental: All of the serum samples that were collected were stored in aliquotes at −20° C. and thawed before each assay. Total human IgG anti-hsp60, anti-hsp70, and anti-hsp90, as well as anti-tetanus toxoid proteins were detected by the antibody capture-type enzyme immunoassay ELISA [Maggio, M. T. (1981) Enzyme Immunoassay, CRC Press, Boca Raton, USA]. 96-well micro titer plates (Dynatech) were coated with the protein according to the antibody being tested. Serum samples were distributed at dilutions in the range of 1:50 to 1:70 into the pre-coated wells for the protein detection assay. Thus, any IgG anti-hsp60, anti-hsp70, anti-hsp90, or anti-tetanus toxoid present should be bound by the immobilized peptide or protein. After washing off unbound material, a mouse monoclonal anti-human IgG antibody conjugated to alkaline phosphatase (AP) was added to the wells. After an additional washing step to remove any unbound anti-enzyme reagent, the AP substrate p-nitrophenyl phosphate (pNPP) solution was added. The intensity of the color developed was measured using an Anthos htll ELISA reader at λ=405 nm. The amount of antibody detected was represented as Units of Optical Density at λ=405 nm. Patients and control subjects were assayed in the same experiment.
The InStat 2.01 computer program was used for the statistical analysis. The results obtained from the samples of healthy individuals were used to determine the cutoff for each assay, which was established as the mean plus two standard deviations (SDs). […] The results were presented as the percentage of positive from the total tested group.
Levels of IgG antibodies to hsp60, hsp70, and hsp90 were measured in the sera of 20 Type 1 Diabetes children (P1-P5, P7-P21; Table 3A) and two control groups, 10 normoglycemic children (Table 3B) and 15 healthy adult blood donors (Table 3C). The level of the antibodies was scored as positive when it was greater than the cut-off level (cut-off levels were established based on the mean value of antibody levels from the normoglycemic children plus two standard deviations).

[2] = system: peripheral blood mononuclear cells (PBMC) / T-cells; assay: T-cell proliferation assay (3H-Thymidine incorporation, stimulation index); type: cell-based, human; conditions: for T-cell proliferative response, S.I., Mean ± SD: group mean
[3] = system: peripheral blood mononuclear cells (PBMC) / T-cells; conditions: 25 newly diagnosed Type 1 Diabetes adult patients; Abulafia-Lapid et al. 1999; cited from earlier work

B1: hsp60: recombinant human hsp60 (StressGen, Canada), 60 kDa heat-shock protein (protein)
chain: AKDVKFGADARALMLQGVDLLADAVAVTMGPKGRTVIIEQSWGSPKVTKDGVTVAKSIDLKDKYKNIGAKLVQDVANNTNEEAGDGTTTATVLARSIAKEGFEKISKGANPVEIRRGVMLAVDAVIAELKKQSKPVTTPEEIAQVATISANGDKEIGNIISDAMKKVGRKGVITVKDGKTLNDELEIIEGMKFDRGYISPYFINTSKGQKCEFQDAYVLLSEKKISSIQSIVPALEIANAHRKPLVIIAEDVDGEALSTLVLNRLKVGLQVVAVKAPGFGDNRKNQLKDMAIATGGAVFGEEGLTLNLEDVQPHDLGKVGEVIVTKDDAMLLKGKGDKAQIEKRIQEIIEQLDVTTSEYEKEKLNERLAKLSDGVAVLKVGGTSDVEVNEKKDRVTDALNATRAAVEEGIVLGGGCALLRCIPALDSLTPANEDQKIGIEIIKRTLKIPAMTIAKNAGVEGSLIVEKIMQSSSEVGYDAMAGDFVNMVEKGIIDPTKVVRTALLDAAGVASLLTTAEVVVTEIPKEEKDPGMGAMGGMGGGMGGGMF
IgG antibodies to the antigen in serum, Mean ± SD ([1]; Type 1 Diabetes children): 0.6 Units of Optical Density at λ=405 nm | Positive (antibody level above cut-off) ([1]; Type 1 diabetes children (n=20), cut-off = mean of normoglycemic children plus two SD): 45% | Positive (antibody level above cut-off) ([1]; Type 1 diabetes children (n=20), cut-off = mean of normoglycemic children plus two SD, listed as Hsp60): 45% | Positive (antibody level above cut-off) ([1]; healthy adult blood donors (n=15)): 6% | Positive (antibody level above cut-off) ([1]; healthy adult blood donors (n=15), listed as Hsp60): 6.6% | IgG antibodies to the antigen in serum, Mean ± SD ([1]; healthy adult blood donors): 0.61 ± 0.12 Units of Optical Density at λ=405 nm | Positive (antibody level above cut-off) ([1]; pediatric control serum donors / healthy children (n=10)): 10% | Positive (antibody level above cut-off) ([1]; pediatric control serum donors / healthy children (n=10), listed as Hsp60): 10% | IgG antibodies to the antigen in serum, Mean ± SD ([1]; pediatric control serum donors): 0.45 ± 0.11 Units of Optical Density at λ=405 nm | T-cell proliferative response, Stimulation Index (S.I.) [2]: 1.25 | T-cell proliferative response, S.I., Mean ± SD ([2]; Healthy subjects): 1.79±0.74 and 1.7 ± 0.72 | T-cell response, in words ([2]; Type 1 Diabetes adult patients (Table 1D), tested after more than 12 weeks): not seen | T-cell proliferative response, S.I., Mean ± SD ([2]; Type 1 Diabetes adult patients): 1.22 ± 0.36 | Responding subjects (S.I.≥2) ([2]; Type 1 Diabetes children): 85% | T-cell proliferative response, S.I., Mean ± SD ([2]; Type 1 Diabetes children): 3.6±2.6 | T-cell proliferative response, S.I., Mean ± SD ([2]; Type 2 Diabetes patients): 1.7 ± 0.75 | Responding subjects (S.I.≥2) ([2]; healthy subjects / healthy blood donors): 39% | Patients tested positive (proliferative response) [3]: 92%
